According to US20230029453A1 (Janssen / Centocor, published 2023):

Assays:
Test in all cases: UV peptide exchange; HLA class I ELISA
HLA-A*02:01 [1] = target: T1, HLA-A*02:01 (human, biotinylated heavy chain)
T1 construct: Conditional HLA class I complex as for m1
Experimental: (§1) The UV control represented UV-irradiation of conditional HLA class I complex in the absence of a rescue peptide.
(§2) The HLA class I ELISA is an enzyme immunoassay based on the detection of beta2-microglobulin (B2M) of (peptide-stabilized) HLA class I complexes. To this end streptavidin was bound onto polystyrene microtiter wells. […] Subsequently, horseradish peroxidase (HRP)-conjugated antibody to human B2M was added. […] In the latter case B2M was removed during the washing step. After removal of non-bound HRP conjugate by washing, a substrate solution was added to the wells. A coloured product formed in proportion to the amount of intact HLA complex present in the samples. After the reaction was terminated by the addition of a stop solution, absorbance was measured in a microtiter plate reader.

HLA-A*24:02 [2] = target: T2, HLA-A*24:02 (human, biotinylated heavy chain)
T2 construct: Conditional HLA class I complex as for m1
Experimental: as §1, §2

HLA-B*27:05 = target: T3, HLA-B*27:05 (human, biotinylated heavy chain)
T3 construct: Conditional HLA class I complex as for m1
Experimental: as §2

HLA-B*08:01 [3] = target: T4, HLA-B*08:01 (human, biotinylated heavy chain)
T4 construct: Conditional HLA class I complex as for m1
Experimental: as §1, §2

HLA-B*07:02 [4] = target: T5, HLA-B*07:02 (human, biotinylated heavy chain)
T5 construct: Conditional HLA class I complex as for m1
Experimental: as §1, §2

HLA-A*01:01 [5] = target: T6, HLA-A*01:01 (human, biotinylated heavy chain)
T6 construct: Conditional HLA class I complex (heavy chain + B2M) first held by a UV-labile peptide; the tested peptide is exchanged in after UV cleavage
Experimental: as §1, §2

HLA-A*01:01 [6] = target: T6, HLA-A*01:01; remark: listed apart in the source
Experimental: as §2
(§3) Higher percentages correspond to stronger binding to the HLA allele.
HLA-A*24:02 [7] = target: T2, HLA-A*24:02; remark: listed apart in the source
Experimental: as §2, §3
HLA-B*08:01 [8] = target: T4, HLA-B*08:01; remark: listed apart in the source
Experimental: as §2, §3
HLA-A*03:01 = target: T7, HLA-A*03:01 (human, biotinylated heavy chain)
T7 construct: Conditional HLA class I complex as for m1
Experimental: as §2, §3

HLA-A*02:01 [9] = target: T1, HLA-A*02:01; remark: listed apart in the source
Experimental: as §2, §3
HLA-B*07:02 [10] = target: T5, HLA-B*07:02; remark: listed apart in the source
Experimental: as §2, §3

| Binder | Average % (HLA-A*02:01 [1]) [%] | Exch I (%) (HLA-A*02:01 [1]) | Exch II (%) (HLA-A*02:01 [1]) | Average % (HLA-A*24:02 [2]) [%] | Exch I (%) (HLA-A*24:02 [2]) | Exch II (%) (HLA-A*24:02 [2]) | Average % (HLA-B*27:05) [%] | Exch I (%) (HLA-B*27:05) | Exch II (%) (HLA-B*27:05) | Average % (HLA-B*08:01 [3]) [%] | Exch I (%) (HLA-B*08:01 [3]) | Exch II (%) (HLA-B*08:01 [3]) | Average % (HLA-B*07:02 [4]) [%] | Exch I (%) (HLA-B*07:02 [4]) | Exch II (%) (HLA-B*07:02 [4]) | Average % (HLA-A*01:01 [5]) [%] | Exch I (%) (HLA-A*01:01 [5]) | Exch II (%) (HLA-A*01:01 [5]) | exchange rate with Pos (HLA-A*01:01 [6]) [%] | exchange rate with Pos (HLA-A*24:02 [7]) [%] | also measured |
| --- | --- | --- | --- | --- | --- | --- | --- | --- | --- | --- | --- | --- | --- | --- | --- | --- | --- | --- | --- | --- | --- |
| LIAMDSAIT [Peptide 10, 9-mer LIAMDSAIT derived from P22 (SEQ ID NO: 1003)] | 6.9 | 6.7 | 7.1 | 4.8 | 4.6 | 5.1 | 7.3 | 8.5 | 6.1 | 7.3 | 6.9 | 7.7 | 9.5 | 9.8 | 9.2 | 5.8 | 6.2 | 5.4 | – | – | – |
| SLIAMDSAI [Peptide 3, 9-mer SLIAMDSAI derived from FUS1 (SEQ ID NO: 1001)] | 58.5 | 57.3 | 59.7 | 5.5 | 5.3 | 5.7 | 6.3 | 7.1 | 5.5 | 7.3 | 7.5 | 7.1 | 11.1 | 10.9 | 11.3 | 6.9 | 6.9 | 6.9 | – | – | – |
| STRRAVRRM (Synthetic 9-mer) [P16 9-mer STRRAVRRM (MSMB-NCOA4 fusion)] | – | – | – | – | – | – | – | – | – | – | – | – | – | – | – | – | – | – | 5.5 | 0.8 | exchange rate with Pos (HLA-B*08:01 [8]): 6.2%; exchange rate with Pos (HLA-A*03:01): 6.1%; exchange rate with Pos (HLA-A*02:01 [9]): 10.4%; exchange rate with Pos (HLA-B*07:02 [10]): 13.7% |
| IAMDSAITL [Peptide 2, 9-mer IAMDSAITL derived from FUS1 (SEQ ID NO: 1001)] | 85.8 | 81.1 | 90.5 | 7 | 6.7 | 7.3 | 9.3 | 10.1 | 8.5 | 7.9 | 7.6 | 8.1 | 67.1 | 68.7 | 65.4 | 6.9 | 6.7 | 7 | – | – | – |
| FPVGAEGTF (Synthetic 9-mer) [P27 9-mer FPVGAEGTF (FAM126B-ORC2 fusion)] | – | – | – | – | – | – | – | – | – | – | – | – | – | – | – | – | – | – | 4.8 | 0.7 | exchange rate with Pos (HLA-B*08:01 [8]): 6.4%; exchange rate with Pos (HLA-A*03:01): 4.5%; exchange rate with Pos (HLA-A*02:01 [9]): 10%; exchange rate with Pos (HLA-B*07:02 [10]): 7.8% |
| AMDSAITLW [Peptide 1, 9-mer AMDSAITLW derived from FUS1 (SEQ ID NO: 1001)] | 8.6 | 8 | 9.2 | 5.5 | 5.1 | 6 | 9.8 | 10.3 | 9.3 | 7 | 6.6 | 7.3 | 9.7 | 10 | 9.4 | 4.6 | 4.7 | 4.6 | – | – | – |
| FFKRAAEGF (Synthetic 9-mer) [P77 9-mer FFKRAAEGF (AR-V3)] | – | – | – | – | – | – | – | – | – | – | – | – | – | – | – | – | – | – | 1.9 | 1.7 | exchange rate with Pos (HLA-B*08:01 [8]): 3.4%; exchange rate with Pos (HLA-A*03:01): 2.8%; exchange rate with Pos (HLA-B*07:02 [10]): 14.2% |
| LYHREKQLI [Peptide 5, 9-mer LYHREKQLI derived from P22 (SEQ ID NO: 1003)] | 11.8 | 11.3 | 12.3 | 17.8 | 17.5 | 18.1 | 17.4 | 19.3 | 15.4 | 7.7 | 7.5 | 7.9 | 10.8 | 11.5 | 10 | 6 | 6.2 | 5.8 | – | – | – |
| SLYHREKQL [Peptide 4, 9-mer SLYHREKQL derived from P22 (SEQ ID NO: 1003)] | 87 | 82.8 | 91.2 | 6.6 | 6.5 | 6.6 | 16.5 | 19 | 14 | 20.7 | 20.3 | 21.1 | 10.8 | 10.9 | 10.8 | 6.6 | 6.7 | 6.4 | – | – | – |
| YHREKQLIA [Peptide 6, 9-mer YHREKQLIA derived from P22 (SEQ ID NO: 1003)] | 17.2 | 16.3 | 18.1 | 6.5 | 6.6 | 6.3 | 13.1 | 14.4 | 11.7 | 8.3 | 8.3 | 8.4 | 10.8 | 11.1 | 10.5 | 5.8 | 6.2 | 5.5 | – | – | – |
| GVLRRLLCR (Synthetic 9-mer) [P37 9-mer GVLRRLLCR (TSTD1-F11R fusion)] | – | – | – | – | – | – | – | – | – | – | – | – | – | – | – | – | – | – | 1.4 | -0.1 | exchange rate with Pos (HLA-B*08:01 [8]): 3.3%; exchange rate with Pos (HLA-A*03:01): 6.4%; exchange rate with Pos (HLA-A*02:01 [9]): 12.5% |
| HREKQLIAM [Peptide 7, 9-mer HREKQLIAM derived from P22 (SEQ ID NO: 1003)] | 8.2 | 7.9 | 8.6 | 5.5 | 5.4 | 5.6 | 30.9 | 32.3 | 29.5 | 9.5 | 9.5 | 9.5 | 12.6 | 12.6 | 12.6 | 5.4 | 5.5 | 5.2 | – | – | – |
| KQLIAMDSA [Peptide 9, 9-mer KQLIAMDSA derived from P22 (SEQ ID NO: 1003)] | 7.2 | 6.9 | 7.6 | 5 | 4.6 | 5.3 | 10.8 | 11.8 | 9.8 | 7.7 | 7.1 | 8.3 | 10.3 | 10.5 | 10.1 | 6.3 | 6.3 | 6.3 | – | – | – |
